Assay results: patent publication US20190041402A1 (GOVERNING COUNCIL OF THE UNIVERSITY OF TORONTO, published 2019)

What was measured:
rat αKlotho (endogenous) = biological target: T1, rat αKlotho (endogenous) (rat, UniProt Q9Z2Y9 35-983); test: immunoprecipitation-immunoblot, serum and urine; native soluble αKlotho in rat serum; immunoprecipitation-immunoblot
T1 sequence (looked up): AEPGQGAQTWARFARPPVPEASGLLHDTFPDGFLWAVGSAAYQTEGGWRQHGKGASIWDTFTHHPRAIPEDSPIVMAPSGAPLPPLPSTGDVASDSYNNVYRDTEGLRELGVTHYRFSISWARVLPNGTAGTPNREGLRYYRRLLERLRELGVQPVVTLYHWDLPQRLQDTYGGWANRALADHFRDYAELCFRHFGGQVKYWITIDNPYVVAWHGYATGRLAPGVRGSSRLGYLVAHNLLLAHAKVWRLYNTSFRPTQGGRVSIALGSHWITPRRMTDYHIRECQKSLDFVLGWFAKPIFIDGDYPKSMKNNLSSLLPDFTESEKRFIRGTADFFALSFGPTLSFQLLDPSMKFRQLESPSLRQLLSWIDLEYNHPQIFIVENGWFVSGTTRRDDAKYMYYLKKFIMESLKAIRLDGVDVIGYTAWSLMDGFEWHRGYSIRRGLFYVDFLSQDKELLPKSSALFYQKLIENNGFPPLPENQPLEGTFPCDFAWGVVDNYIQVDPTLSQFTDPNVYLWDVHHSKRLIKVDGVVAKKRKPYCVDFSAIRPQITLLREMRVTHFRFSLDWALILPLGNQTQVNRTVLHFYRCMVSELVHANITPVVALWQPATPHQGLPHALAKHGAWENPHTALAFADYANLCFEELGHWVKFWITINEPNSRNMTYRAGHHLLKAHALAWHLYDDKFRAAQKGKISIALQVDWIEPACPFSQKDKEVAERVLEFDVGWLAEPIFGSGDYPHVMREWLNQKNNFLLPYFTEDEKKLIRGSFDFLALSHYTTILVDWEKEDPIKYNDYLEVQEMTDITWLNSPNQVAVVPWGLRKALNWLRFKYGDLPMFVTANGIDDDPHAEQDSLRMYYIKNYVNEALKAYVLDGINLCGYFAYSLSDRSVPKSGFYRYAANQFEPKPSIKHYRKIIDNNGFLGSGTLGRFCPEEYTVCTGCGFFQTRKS
Procedure: The ELISA was performed as instructed by the manufacturer (Immuno-Biological Laboratory, Japan). For the IP-IB assay, typically 50 μl of serum or urine were diluted with KRH buffer [25 mM Hepes-NaOH (pH 7.4), 120 mM NaCl, 5 mM KCl, 1.2 mM MgSO4, 1.3 mM CaCl2, 1.3 mM KH2PO4] to a final volume of 0.5 ml incubated with 2 μg of sb106-Fab overnight at 4° C. in low binding, siliconized tubes. Sepharose beads (50 μL) conjugated with anti-FLAG antibody (50% v/v) prewashed 3× with KRH buffer were added, incubated (4° C.×2 h), and washed (KRH-500 μl per tube ×3; 22° C.). The immune complex was eluted with 2×SDS sample loading buffer (50 μl; 100° C.×3 min; 4° C.×3 min; spun), and fractionated by SDS-PAGE, transferred to nitrocellulose membranes and blotted with anti-KL1 antibody (KM2076, 1:4000 or 3.1 mg/mL, 1:10000 dilution) and diluent (Dako#S3022, Carpinteria, Calif., USA) overnight (4° C., rocker). The membrane was washed (×3, Tris-buffered saline with 0.1% Tween; TBS-T), exposed to anti-rat IgG2A (LSBio cat#LS-059051, 1:20000 in 5% milk/2% goat serum/TBS-T×1 h) and washed (×3 TBS-T). For chemiluminescence, the membrane was covered with SuperSignal West Femto Maximum Sensitivity substrate (Thermo Scientific, Rockford, Ill., USA) and exposed for 30-90 s. The 130-kD bands were scanned, and density was compared with internal control samples of know amount of Klotho using Adobe Photoshop CS4.

mouse αKlotho = biological target: T2, mouse αKlotho (mouse, UniProt O35082 35-982); test: SPR (ProteOn XPR36), Fab captured by anti-IgG(H+L), mouse αKlotho injected in serial dilutions, Langmuir fit
T2 construct: also called Mu aKL
T2 sequence (looked up): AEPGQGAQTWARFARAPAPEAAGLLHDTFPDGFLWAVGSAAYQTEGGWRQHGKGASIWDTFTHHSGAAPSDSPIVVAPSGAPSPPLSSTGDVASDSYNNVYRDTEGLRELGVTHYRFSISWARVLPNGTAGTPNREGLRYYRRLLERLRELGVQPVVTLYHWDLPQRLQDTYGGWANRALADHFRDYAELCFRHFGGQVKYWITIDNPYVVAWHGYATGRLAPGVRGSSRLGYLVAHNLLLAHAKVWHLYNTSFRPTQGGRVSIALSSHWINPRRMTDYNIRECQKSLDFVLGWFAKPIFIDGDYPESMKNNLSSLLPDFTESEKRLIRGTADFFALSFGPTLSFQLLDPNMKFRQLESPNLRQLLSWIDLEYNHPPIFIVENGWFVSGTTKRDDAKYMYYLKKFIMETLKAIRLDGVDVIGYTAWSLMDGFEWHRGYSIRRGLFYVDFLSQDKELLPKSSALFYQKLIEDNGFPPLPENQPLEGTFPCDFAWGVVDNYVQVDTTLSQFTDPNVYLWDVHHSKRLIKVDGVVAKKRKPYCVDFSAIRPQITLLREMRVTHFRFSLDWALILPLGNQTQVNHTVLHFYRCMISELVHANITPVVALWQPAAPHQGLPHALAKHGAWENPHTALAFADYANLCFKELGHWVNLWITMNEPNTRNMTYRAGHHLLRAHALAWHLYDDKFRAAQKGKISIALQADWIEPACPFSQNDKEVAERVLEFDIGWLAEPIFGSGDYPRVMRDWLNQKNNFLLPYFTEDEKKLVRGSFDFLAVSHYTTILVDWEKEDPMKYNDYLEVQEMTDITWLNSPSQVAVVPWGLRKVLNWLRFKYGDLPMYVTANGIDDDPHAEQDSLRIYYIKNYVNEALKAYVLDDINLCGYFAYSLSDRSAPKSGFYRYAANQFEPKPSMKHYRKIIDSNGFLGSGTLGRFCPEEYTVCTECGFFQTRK
Procedure: Estimated affinities against human and mouse antigen for select αKlotho Fabs were obtained by surface plasmon resonance on a ProteOn XPR36 (FIG. 17). Fabs were captured using an anti-IgG(H+L) antibody and serial dilutions of αKlotho were injected. Binding curves were fitted to the Langmuir model. (A) Determined Kon, Koff and KD values. (B) and (C) Binding curves for human and mouse antigen respectively.

B1: sb106 Fab (Fab, V domains shown)
VH: EVQLVESGGGLVQPGGSLRLSCAASGFNISYYSIHWVRQAPGKGLEWVAYISPSYGYTSYADSVKGRFTISADTSKNTAYLQMNSLRAEDTAVYYCARYYVYASHGWAGYGMDYWGQGTLVTVSS
VL: DIQMTQSPSSLSASVGDRVTITCRASQSVSSAVAWYQQKPGKAPKLLIYSASSLYSGVPSRFSGSRSGTDFTLTISSLQPEDFATYYCQQAGYSPITFGQGTKVEIKR
notes: also called Fsb106; clone 48
- binding result (rat αKlotho (endogenous)): binds
- Kd (mouse αKlotho): 784 pM
- koff (mouse αKlotho): 0.000159 s⁻¹
- kon (mouse αKlotho): 202000 M⁻¹ s⁻¹
